Source: patent US20240052042A1 (Novartis, published 2024)
Each block holds one binder with its values, some of them ahead of it.

What was measured:
[1] = biological target: T1, human NPR1 on CHO-K1 cells in the presence of ANP (human, UniProt P01160 124-151); assay: flow cytometry (FL2-H) on hNPR1 CHO-K1 cells with saturating ANP, IgG titrated; control parental CHO-K1 [panel XX03]
T1 construct: also called hNPR1 CHO K1 + 100 nM ANP
T1 sequence: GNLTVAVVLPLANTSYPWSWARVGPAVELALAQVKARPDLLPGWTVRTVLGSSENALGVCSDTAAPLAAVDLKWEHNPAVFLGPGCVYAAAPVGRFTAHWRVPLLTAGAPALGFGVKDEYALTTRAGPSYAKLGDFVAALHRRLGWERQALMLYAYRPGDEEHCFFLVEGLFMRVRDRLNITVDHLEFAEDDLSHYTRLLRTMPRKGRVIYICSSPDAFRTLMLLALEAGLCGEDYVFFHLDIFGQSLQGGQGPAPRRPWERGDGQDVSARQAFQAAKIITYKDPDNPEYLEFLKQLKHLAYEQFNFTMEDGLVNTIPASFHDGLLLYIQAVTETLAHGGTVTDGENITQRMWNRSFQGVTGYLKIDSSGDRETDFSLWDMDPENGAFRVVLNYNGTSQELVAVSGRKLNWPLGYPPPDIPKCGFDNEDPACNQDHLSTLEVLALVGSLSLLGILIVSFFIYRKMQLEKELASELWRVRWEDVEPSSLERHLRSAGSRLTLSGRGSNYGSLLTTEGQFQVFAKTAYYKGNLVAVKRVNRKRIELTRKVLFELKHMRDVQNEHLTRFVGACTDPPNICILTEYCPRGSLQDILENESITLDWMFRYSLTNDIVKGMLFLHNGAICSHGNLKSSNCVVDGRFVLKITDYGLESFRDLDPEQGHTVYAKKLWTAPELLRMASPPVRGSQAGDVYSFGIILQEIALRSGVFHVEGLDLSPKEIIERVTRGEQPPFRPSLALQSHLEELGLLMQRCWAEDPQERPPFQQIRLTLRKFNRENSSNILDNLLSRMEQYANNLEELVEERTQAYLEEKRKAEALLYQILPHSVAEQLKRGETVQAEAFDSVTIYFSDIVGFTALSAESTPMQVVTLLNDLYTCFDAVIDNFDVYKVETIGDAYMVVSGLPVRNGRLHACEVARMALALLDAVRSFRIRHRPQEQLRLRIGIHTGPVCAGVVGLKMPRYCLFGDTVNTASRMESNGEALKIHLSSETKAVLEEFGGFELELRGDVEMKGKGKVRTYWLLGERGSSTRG
T1 sequence (peptide): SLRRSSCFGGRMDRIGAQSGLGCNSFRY

[2] = biological target: T2, human NPR3 (counter target) (human, UniProt P17342 27-481, limits assumed); assay: ELISA, IgG titrated on coated antigen, fluorescence [Cont.]
T2 construct: Pannings used hNPR3-hFc; also called hNPR3; hNPR3-hFc
T2 sequence (looked up): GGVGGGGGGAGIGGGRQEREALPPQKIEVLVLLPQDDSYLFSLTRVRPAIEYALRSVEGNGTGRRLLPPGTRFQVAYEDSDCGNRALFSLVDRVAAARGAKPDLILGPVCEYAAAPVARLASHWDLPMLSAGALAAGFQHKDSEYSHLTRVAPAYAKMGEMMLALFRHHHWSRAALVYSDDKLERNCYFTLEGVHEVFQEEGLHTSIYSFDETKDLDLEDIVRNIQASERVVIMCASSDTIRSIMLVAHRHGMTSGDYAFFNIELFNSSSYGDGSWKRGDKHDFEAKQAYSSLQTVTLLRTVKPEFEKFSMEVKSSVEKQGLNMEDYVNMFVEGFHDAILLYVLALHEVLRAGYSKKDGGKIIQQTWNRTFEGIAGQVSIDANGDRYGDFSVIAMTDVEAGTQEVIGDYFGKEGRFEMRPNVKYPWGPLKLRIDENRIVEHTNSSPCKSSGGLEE

[3] = biological target: T3, human NPR3 in the presence of ANP (human, UniProt P17342 27-481; P01160 124-151, limits assumed); assay: ELISA, IgG titrated on coated antigen with ANP (250 fold molar excess), fluorescence [Cont.]
T3 construct: also called hNPR3 + 100 nM ANP
T3 sequence (looked up): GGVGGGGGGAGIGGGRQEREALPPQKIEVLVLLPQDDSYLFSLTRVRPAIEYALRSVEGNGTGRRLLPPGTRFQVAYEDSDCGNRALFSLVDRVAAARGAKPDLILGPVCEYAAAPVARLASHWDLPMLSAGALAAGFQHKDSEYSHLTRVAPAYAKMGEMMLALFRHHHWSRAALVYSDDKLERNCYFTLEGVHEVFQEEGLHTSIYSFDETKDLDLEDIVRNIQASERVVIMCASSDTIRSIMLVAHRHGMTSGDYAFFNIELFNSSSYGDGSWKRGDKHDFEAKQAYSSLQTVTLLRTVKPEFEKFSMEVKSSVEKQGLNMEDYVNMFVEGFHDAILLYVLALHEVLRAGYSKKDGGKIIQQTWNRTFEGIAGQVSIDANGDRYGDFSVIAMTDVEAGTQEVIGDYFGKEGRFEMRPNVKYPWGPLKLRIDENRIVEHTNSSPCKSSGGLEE
T3 sequence (peptide, looked up): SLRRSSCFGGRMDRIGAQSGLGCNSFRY

rNPR1-ANP complex = biological target: T4, rNPR1-ANP complex (rat, UniProt P01160 124-151 (human entry), limits assumed); assay: as above
T4 construct: rNPR1 antigen in the presence of ANP; also called rNPR1 + 100 nM ANP
T4 sequence: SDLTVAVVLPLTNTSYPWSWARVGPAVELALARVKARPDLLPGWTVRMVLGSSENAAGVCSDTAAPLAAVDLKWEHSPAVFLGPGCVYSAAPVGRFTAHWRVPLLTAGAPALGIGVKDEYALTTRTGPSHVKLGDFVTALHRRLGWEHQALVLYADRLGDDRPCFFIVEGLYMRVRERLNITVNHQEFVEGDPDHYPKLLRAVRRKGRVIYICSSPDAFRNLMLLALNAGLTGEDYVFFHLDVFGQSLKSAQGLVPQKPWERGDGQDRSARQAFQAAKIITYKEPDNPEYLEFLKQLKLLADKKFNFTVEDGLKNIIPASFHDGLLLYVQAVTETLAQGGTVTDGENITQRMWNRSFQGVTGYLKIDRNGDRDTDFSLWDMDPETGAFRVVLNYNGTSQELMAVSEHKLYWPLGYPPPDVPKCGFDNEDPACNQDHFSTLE
T4 sequence (peptide): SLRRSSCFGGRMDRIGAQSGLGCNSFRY

[4] = biological target: constitutively active human NPR1 mutant (W74R) (human) (UniProt P16066); assay: ELISA, IgG
[5] = biological target: W74R hNPR1 mutant in the presence of ANP (human) (UniProt P01160); assay: ELISA, IgG
rat NPR1 (rNPR1) = biological target: T5, rat NPR1 (rNPR1) (rat, UniProt P18910 29-469, limits assumed); assay: ELISA, IgG titrated on coated antigen, fluorescence [Cont.]
T5 construct: Soluble antigen
T5 sequence: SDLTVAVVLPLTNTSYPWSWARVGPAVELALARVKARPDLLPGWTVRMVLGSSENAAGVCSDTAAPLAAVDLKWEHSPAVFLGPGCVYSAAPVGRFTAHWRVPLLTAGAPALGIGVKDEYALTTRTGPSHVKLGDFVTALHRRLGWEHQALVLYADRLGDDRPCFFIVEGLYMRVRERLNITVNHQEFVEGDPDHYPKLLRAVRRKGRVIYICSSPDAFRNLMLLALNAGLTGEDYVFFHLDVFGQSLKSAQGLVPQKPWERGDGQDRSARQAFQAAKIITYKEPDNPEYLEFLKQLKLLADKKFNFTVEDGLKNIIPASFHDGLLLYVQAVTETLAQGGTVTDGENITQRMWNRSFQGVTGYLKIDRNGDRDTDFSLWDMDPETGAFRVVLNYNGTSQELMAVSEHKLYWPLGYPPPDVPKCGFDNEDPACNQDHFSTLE

[6] = biological target: human NPR1 on CHO-K1 cells in the presence of ANP (human) (UniProt P01160); assay: flow cytometry, hNPR1 CHO-K1 cells, IgG
hNPR1-ANP complex = biological target: T6, hNPR1-ANP complex (human, UniProt P01160 124-151, limits assumed); assay: FRET ANP competition assay, IgG titrated on hNPR1 with Cy5-labeled ANP; negative values mean more ANP signal [panel XX01]
T6 construct: hNPR1 antigen in the presence of ANP; also called hNPR1 + 100 nM ANP
T6 sequence: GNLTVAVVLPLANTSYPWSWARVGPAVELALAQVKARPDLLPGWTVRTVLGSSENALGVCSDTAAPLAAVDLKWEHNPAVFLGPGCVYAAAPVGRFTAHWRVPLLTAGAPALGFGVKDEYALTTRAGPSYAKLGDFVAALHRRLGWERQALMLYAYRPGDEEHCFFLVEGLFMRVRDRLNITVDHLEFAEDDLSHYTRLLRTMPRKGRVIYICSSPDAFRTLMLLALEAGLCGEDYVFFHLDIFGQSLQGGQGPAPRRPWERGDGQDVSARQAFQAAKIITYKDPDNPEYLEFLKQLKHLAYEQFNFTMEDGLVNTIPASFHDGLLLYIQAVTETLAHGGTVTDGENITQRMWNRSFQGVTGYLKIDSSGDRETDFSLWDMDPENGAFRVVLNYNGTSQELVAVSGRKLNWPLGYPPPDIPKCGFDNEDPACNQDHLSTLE
T6 sequence (peptide): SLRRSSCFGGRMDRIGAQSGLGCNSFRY
Description: The same 31 IgGs were tested for ANP competition using a Fluorescence Resonance Energy Transfer (FRET)-based assay in which the NPR1-specific antibodies competed with ANP for binding to NPR1. In this FRET based assay (see FIG. 3), Eu-labeled Streptavidin (for measurement of IgGs) or Eu-labeled anti-hFc antibody (for measurement of FabCys) was used as an energy donor, while Cy5-labeled ANP was used as an acceptor (for all measurements). The resulting fluorescent signal was decreased by ANP-competitive antibodies. The assay was performed as follows: antibodies were mixed with NPR1 and incubated for 5 minutes at room temperature. After addition of the Eu-labeled donor and incubation for 30 minutes at room temperature, the Cy5-ANP solution was added. After a further 60-minute incubation, readout was performed using a TECAN Infinite M1000 Pro using an excitation wavelength of 317 nm and an emission wavelength of 665 nm. Percentage of ANP competition was calculated according to the following formulae: […]

[7] = biological target: T1, human NPR1 on CHO-K1 cells in the …; assay: flow cytometry (FL2-H) on hNPR1 CHO-K1 cells with saturating ANP, IgG titrated; control parental CHO-K1 [panel XX01]

EC50 (read off the curve) [1]: ~1 nM
binding result [2]: no binding (tested: 200 nM)
binding result [3]: no binding (tested: 200 nM)
B1: XX03 (IgG format) (antibody, V domains shown)
VH: EVQLLESGGGLVQPGGSLRLSCAASGFTFSSYWMNWVRQAPGKGLEWVSVIESKGNYIFYADSVKGRFTISRDNSKNTLYLQMNSLRAEDTAVYYCARDRYSMIYSYGAGAFDYWGQGTLVTVSS
VL: DIQMTQSPSSLSASVGDRVTITCRASQGISSYLAWYQQKPGKAPKLLIYTASTLQSGVPSRFSGSGSGTDFTLTISSLQPEDFATYYCMQSYEKPRTFGQGTKVEIK

binding result (rNPR1-ANP complex): no binding (tested: 1000 nM)
EC50 [4]: 0.9 nM
EC50 [5]: 0.8 nM
binding result (rat NPR1 (rNPR1)): no binding (tested: 1000 nM)
flow cytometry S/BG at 2 µM IgG [6]: 1.1 S/BG
B2: WW06 (IgG format) (antibody, V domains shown)
VH: QVQLVQSGAEVKKPGESLKISCKGSGYSFTSYWIAWVRQMPGKGLEWMGRIDPDNSYTRYSPSFQGQVTISADKSISTAYLQWSSLKASDTAMYYCARWLSPGYALGEQPAGMDHWGQGTLVTVSS
VL: DIVLTQPPSVSGAPGQRVTISCTGSSSNIGAGYAVHWYQQLPGTAPKLLIYSNNKRPSGVPDRFSGSKSGTSASLAITGLQAEDEADYYCQSYDLQKSSRVFGGGTKLTVLG
notes: also called WW06_LALA

EC50 (read off the curve) (hNPR1-ANP complex): ~0.1 nM
EC50 (read off the curve) [7]: ~0.8 nM
B3: XX01 (IgG format) (antibody, V domains shown)
VH: EVQLLESGGGLVQPGGSLRLSCAASGFTFNTHYIHWVRQAPGKGLEWVSSISSSGQSTYYADSVKGRFTISRDNSKNTLYLQMNSLRAEDTAVYYCARERGYVYYHMFDPWGQGTLVTVSS
VL: DIVLTQSPATLSLSPGERATLSCRASQSITRNYLAWYQQKPGQAPRLLIYGASSRATGIPARFSGSGSGTDFTLTISSLEPEDFAVYYCQQHSMYPRTFGQGTKVEIK
